Results reported in the nanobody polyreactivity screen of Harvey et al. (2022).

test: yeast display, Sf9 membrane polyspecificity reagent, FACS + sequencing; frameworks hold sequencing errors
Outline: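 Genes from sorted yeast were amplified by colony PCR, read by MiSeq 2 × 250 sequencing and filtered on CDR length. These cells carried a synthetic nanobody library in Saccharomyces cerevisiae BJ5465 and were sorted by FACS into low and high (top ~1%) gates on anti-HA and streptavidin fluorescence. Polyreactivity is labelled according to the gate of origin.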

| Sequence | polyreactivity (PSR sort gate) |
| --- | --- |
| QVQLVESGGGLVQAGGSLRLSCAASGLIFRQYAMGWYRPAPGKERELVAAITQTGGRTYYADSVKGRFTISRDNAKNTVYLQMNSLKPEDTAVYYCNALTFAAGDHYDYWGQGTQVTVSS | low polyreactivity |
| QVQLVESGGGLVQAGGSLRLSCAASGLIFRRYAMGWYRQAPGKEREFVAAISWSGGSTYYADSVKGRFTISRDNAKNTVYLQMNSLKPEDTAVYYCAARYRFGGIRRYNYWGQGTQVTVSS | high polyreactivity |
| QVQLVESGGGLVQAGGSLRLSCAASGLIFRRYAMGWYRQAPGKERELVAAISRTGGTTYYADSVKGRFTISRDNAKNTVYLQMNSLKPEDTAVYYCAAAGQGPDYDYWGQGTQVTVSS | high polyreactivity |
| QVQLVESGGGLVQAGGSLRLSCAASGLIFRTYAMGWNRQAPGKERELVAAIRGGGSTNYADSVNGRFTISRDNAKNTVYLQMNSLKPEDTAVYYCAALVYAVTRRRVQGYGYDYWGQGTQVTVSS | low polyreactivity |
| QVQLVESGGGLVQAGGSLRLSCAASGLIFRVYAMGWYRQAPGKERELVAAITWSDGSTYYADSVKGRFTISRDNAKNTVYLQMNSLKPEDTAVYYCATAYFRVYHSRYYYWGQGTQVTVSS | high polyreactivity |
| QVQLVESGGGLVQAGGSLRLSCAASGLIFRYYAMGVYRQAPGHERELVAALTSTGRTYYADSVKGRFTISRDNAKNTVYVQMNSLKPEDTAVYYCNTDQFADYHTDFWSDYEYWGQGTQVTVSS | low polyreactivity |
| QVQLVESGGGLVQAGGSLRLSCAASGLIFRYYAMGWYRQAPGKERELVAAIRRGGSTYYADSVKGRFTISRDNAKNTVYLQMNSLKPEDTAVYYCAADSYYWRYEYDYWGQGTQVTVSS | high polyreactivity |
| QVQLVESGGGLVQAGGSLRLSCAASGLIFRYYCMGWSRQAPRKERELVATINRSGGRTYYADSVKGRFTISRDNAKNTDSLQMNSQKRDETAVYYCAALPEVYWIYGPQMDYWGQGTQVNVSS | high polyreactivity |
| QVQLVESGGGLVQAGGSLRLSCAASGLIFSEYAMGWYRQAPGKERELDAAIRSDGGSTYYADSVKGRFTISRDNAKNTVYLQMNSLKPEDTAVYYCNDRHRSQTRTAMNYWGQGTIVTVSS | high polyreactivity |
| QVQLVESGGGLVQAGGSLRLSCAASGLIFSGYAMGRYRQAPGKERELVAAITWSGGSTYYADSVKGRFTISRDNAKNTVYLQMNSLKPEDTAVYYCNAKFFQISRYGYWGQGTQVTVSS | high polyreactivity |
| QVQLVESGGGLVQAGGSLRLSCAASGLIFSPYAMGWYRQAPGKERELVATISVSGGDTYYADSVKGRFTISRDNAKNTVYLQMNSLIPDDTAVYYCAADSFYRYYWGQGTHVTVSS | high polyreactivity |
| QVQLVESGGGLVQAGGSLRLSCAASGLIFSRYTMGWYRQAPGKERELVAAISKTGSSTYYADSVKGRFTISRDNAKNTVYLQMNSLIPEDTAVYYCAARAYPGYYWGQGTQVTVSS | high polyreactivity |
| QVQLVESGGGLVQAGGSLRLSCAASGLIFSTYAMGWYRQAPGKERELVAAITNSGGSTYYADSVKGRFTISRDNAKNTDYLQMNSLKPEDTAVYYCARRRSYRDNYWGQGTQVTVSS | high polyreactivity |
| QVQLVESGGGLVQAGGSLRLSCAASGLIFSVNAMGWYRQAPGKERELVAAITWSSGRTYYADSVKGRFTISRDNAKNTVYLQMNSLKPEDTAVYYCAAVSYWYGQMYYWGHGTQVTVSS | high polyreactivity |
| QVQLVESGGGLVQAGGSLRLSCAASGLIFSVYVMGWYRQAPGKERELVAGITTGGSTKYADSVKGRFTISRDNAKNTVYLQMNSLKPEDTSVYYCAVGKYNYRGSWDYYWGQGTQVTVSS | high polyreactivity |
| QVQLVESGGGLVQAGGSLRLSCAASGLIFSWNAMGWYRQAPGKEWELVASISYSGGRTYYADSVKGRFTISRDNAKNTVYLQKNSLKPEDTAVYYCAADTNATTDPQMDYWGQGTQVTVSS | low polyreactivity |
| QVQLVESGGGLVQAGGSLRLSCAASGLIFSWYDMGWYRQAPGIERELVAAITTDGDDTYYADSVKGRFTISRDNAKNTVYLQLNSLKPEDTAVYYCAADSELAIRYPDRDYDSWGHGTQVTVSS | low polyreactivity |
